Protein production data for ten sequences are collected here from a protein production outcome set (Wang et al. 2014).

This data set can be described thus: label from the status in PepcDB records.

On to “MSQVASLLIALPLISAFFVPVLKQIKKSLIFPYLTLITLLQTGIAGWVFYEVYTTGKPILIYAGGWRPPVGINLYIGPFAALFILIIAIVSFLTSLFSMRMVKVEPIDKYAMLFLLLMLGATGMIATGDIFNLFVFMEITAITAYALTAYNKTGEAAEASMKYMILGGIGSSFFLIGVALIYGVTGTLNMAQLAEFASAGKIMPVVAQVGLSLIIFGLAVEAELFPLNAWAPDAYQAAPHPITVMFSAFVVKAGLYAMARILYLLQKVNGWDSVLKLLLIMATLTVIFAELSALRQKDVKRMIAYSSIGQVGLIALAFSLGTQAGVDAGVFHMLNHAIVKTMMFLGVGYVGVMVGGTRIEDFRGLGKRMPLTALSLSVGAISTVGVPLFNVFWSKFRIIVATIQAGFVWPAVLVLFASVVEAVYYFRLLHVMWFAGEGERIKEGWIVVFLLLLALIIVGIGIYPTPVWEIVKRAGSDIFAVKVYINNVPLLGVVQ”, for which the protein production entry is “failed”. “MSQYVVCALYKFVELNNYQELREPLLALMEKHHIRGTLLLAGEGINGTVASDRAGIDTLLEWLNTEPRLTGTVYKESYSETQPFNRTKVKLKKEIVTLGVEGIDPRHVVGTYVKPQDWNDLIADPEVFVVDTRNDYEIEIGTFKGAVNPNTETFREFPDYVKENMDPAKHKKVAMFCTGGIRCEKSTAYMKEQGFEEVYHLEGGILKYLEEVPQEESMWEGDCYVFDGRVAVNHQLEKADYDLCNACRLPITDEDKQSELFEQGVSCPKCHGKHSEEQVERFREREKQVSLANQRGEQHVGGESAKQRAQRREAKLAKKAAQRKQA”: the protein production entry was “failed”. In the case of “MSRAGRIAAETRAAWYAFVRRRTAVFFTFFFPVILILIFGALVGTDPTGGGLFAEPAGYYVAGYLAVVVLFTPLSRVGSEVARHRSGNRFEKLATTPLSRAEWLFAQTLVNVVVIGLASLLILGLVLLVTDAAFTFSLLVVPYVALGVALFCGLGAILGRIADSQDGAIAASNGIAIPLLFLSETFVPPALLPEWFVPLLDLSPLTYFARGLRAATYEPVANTGGTGLVGSDPYLNLVVLAAGAVVFFAAGAYALPRTD”, the protein production result is listed as “failed”.

Turning to “MSRDDNGWSKLYPDLLRSIFESLSCLDFHRAGTVCSNWYAVSRSCPLYPWRIVFRGKNSVLFDPIQDKIYTKNLLGIDLSKIHCLASYGNWILIVDPRLDFYLLNVFTRETINLPSLESSLRGDRPFRFIRNDDESGYFLELYGTKFLLTWNDFRFEKTAILWVNGRNGDYVVAWAIKQFYIFSYKKIGNDDDDKRWSITCTQCEDMAYKDNKLYVYTFDHYINILDFSGNSPKEPMEENPYLSHPFSFVDAIYKLRLAVTREGKVLIVLSLVGLDKKICIYKLNLKIGDWEIVESLGDEMLIFGHGVTIRAPDKDISGGGLKSDSICFLYDDYLSDHYLTMKRQPICGVFDLATSTITWHTRLEDLSSKICWFVPGCA”, the protein production entry is recorded as “failed”. Take “MSRFLTFFLIVFSYALQAQVASLTNAILYRNDGNLIKAKEEIDKAVVNEKTIGMPKTWFYTGLIYKDLYQATPTDLAALTTSTAAFKKVFELEKPAGEFSKKSQEALEQIWAISINNGVNLYQLENYRQAITDFERAQGIKPGDTTAYVYAFYAANELKDQALLEKYSSALVRLNYASEAVYYIDIESLMDKNLLDSAYTVSKKALTNYPSDIALKTQQTELMVKMNKTQEAIENLKVLSTKNPKDVQLLINIGSQYTNLNDEPHAAEYYQKALAIDSVNFNANYNMAVFSLRKANEISKQIVVSDNNLKKSFKAIPTVATDPLRQNLQKELAVSTKYYNRAVLGAKDEEAKKNVKTLQDNITSFEDQFLK”: the protein production result is on record as “failed”. Regarding “MSRKLQDSAFRLLKKAAYDIDHDRYKKAFENLDKVEKIEKEVNNPEISYHLLFFKGFAKYRIDELEESLALFGKALEISWDLFSKEPEKEDYRSFMRDTIGSIGDILLKLEDPVKAREYISPMKGIFEKTVLGFEKLLESDPENPEYLEDFLKTIEHIGLCFEAGELTGDAVPLFDKKFDLIEKLLKSETEISEHLSSLDDSLMNFGRMCEGEEYLEEEYIEEAKRVYDRAIEIYGKVLDKDPENSETKVYLSYIYRYMAGMYSDQENLVKAEECYKEALGLLESEIENEPENIPVSENIEVSENISVPKNILFSMAIADMYKDSGLIFSDTEDTTKARDYYTKARETFRGLINKYPDLLEADKNLASSLDELAELFSEIGDFESAEMCYKDELNIYENLLQKEPENPENPEYSLKLSDIYRELGDLFAEEEEIEKARAYYDKEIEIYENLHPAEADKLMLEANKADTWNQIGRLYAEEEPETAVQYHERALPIFLEAFESDPTSEFFHEELLETLTVLGTLFKENREFEKAIRMYERVLEVQKQLLEIMPPASCHDHDHDHNLNHSHNLNHSHNLNHTHDLNHDHDLNHDLDHDHEMDHDHALEHCHDLDIETTYFELGVLHSEIGDEEKASVYHRQALERFEQIIAEQSGNPEILILTSGKAFFSGMSLLEKLESENKDSSIARKYYELALRTIEKLYEAYPMNLKLQEMLASFAEQIGDIYRDADKLEETIQEYEYAYRSLKILYENDPENPKHLHHMLGALNNIGIGYSVTDQQEKGKECFEKALALNESLAKSNPEDLNPLRRNFLLFSNYANLLEELGDSKTAKEYRKKAEELDAKLTEEDPEWTSLVEEL”, the protein production result is given as “failed”.

Turning to “MSRKPLIAGNWKMNLNHYEAIALVQKIAFSLPDKYYDRVDVAVIPPFTDLRSVQTLVDGDKLRLTYGAQDLSPHDSGAYTGDVSGAFLAKLGCSYVVVGHSERRTYHNEDDALVAAKAATALKHGLTPIVCIGEHLDVREAGNHVAHNIEQLRGSLAGLLAEQIGSVVIAYEPVWAIGTGRVASAADAQEVCAAIRKELASLASPRIADTVRVLYGGSVNAKNVGDIVAQDDVDGGLVGGASLDGEHFATLAAIAAGGPLP”, the protein production result was “not failed”. The entry for “MSRKSAPSSTAAPAPKLAADRIRATARELFYREGIRAVGVDAIVSAAGVTKPSLYRSFSSKDELAASYLRDYETEFWSRFDAGAQRHPDDPRAQLRLYLESLAERAANAGPYRGCGLSNAAVEYPDPDHPARLVAEAHKRELRRRLIDMARRMGAREPEVLGDGLMLLIEGAFISGQLFHGDGPARHVARLADRLIEASL” is “failed”.

In the case of “MSRLSAAVVAIDGPAGTGKSSVSRRLARELGARFLDTGAMYRIVTLAVLRAGADPSDIAAVETIASTVQMSLGYDPDGDSCYLAGEDVSVEIRGDAVTRAVSAVSSVPAVRTRLVELQRTMAEGPGSIVVEGRDIGTVVFPDAPVKIFLTASAETRARRRNAQNVAAGLADDYDGVLADVRRRDHLDSTRAVSPLQAAGDAVIVDTSDMTEAEVVAHLLELVTRRSEAVR”, the protein production entry was “not failed”. The entry for “MSRMMPARVRSEGIALYAKGFLNDPIETDFKLTAEIDGEEVSYDLDGAQDSCTCAVFQQNHRYCKHIAAIEEYLKNQDKGSQETKDKEIKGAERALFGENVAFLDAVNGETQLNFNTDQYSIEVQIEDNSQLYDYFSMDYFLYFDLKLRSKNLGRSYVIKDIPYFLRALKNYSQYSLGSLHYIDLFFDNFDEASQEFLTFLLKIDSKSDEALTKSLYIKNGRYLNIPFLFLEEAMDLVSALENYQLQITGRTVNYFTFIALDNDSEIFKFKVESQQDYIELKLYSEDYHNFYDYSLLYANNVFYKLNQEQRRLLLVLDKQFAKKSQIKFSYADKDKLAQALQQLSTLGEIEAPDHFVVRPFDAKFTFDLLEDQTISLAMTFDYGSFSIDSFHDLETLEFSRDLRKEQKIFALMERLQFAKAFNSSLNIPENLSEHFFLKILPAFQKLGQIELSPTLRNMRMDEVPEIHIDSQGGLLDISFDIPQVEDGEFANVIAKLQENAEFYISESGKFYHFNEKFDRLKAALNELDDQFVIQGSSLHVNINRSFQISKIFENIGGASFSEKFKSLYQHLTHPEEFPYEKPEHIKASLRSYQETGVRWMSMLSHYNLGGILADDMGLGKTVQAITFILSNLKKDESVLITAPASLTYNWASEFEKFTDEIDFAVIDGTKAERSKEIQEKHQIYITSYGSFLKDFEDYQDKKLNYLLLDEAQVVKNYSSKTNKSLSALNVEHTFALSGTPLENRIEEIWAIFQVVMPGFLPKREKFNKMEPSVISRLIQPFIMRRKKEDVLEELPEKMEITVYNQLADDQKVIYLAQLELMQKQVLEMDSAALSRSRIEILAGITRLRQICNTPALFMDDYKGSSGKLERLRELLAQIKDSGHRPLIFSQFTKVFPHIEKLMEEQEMTAYKLTGSTPIKDRLSMVQAFNAGSRDAFLVSLKAGGVGLNLTSADVVILVDLWWNPAVEEQAIARAHRMGQKNTVEVIRLITKGTIEEKIMEIQERKKDLIANVLEGDTVDKVLSEAEIREILGV” is “failed”.
